Results as given in the supplement of paper PMC12042874.
± gives the uncertainty stated by the source.

Assay: amyloid nucleation score (Sup35N fusion, yeast selection) (log enrichment); library NNK3; higher = more nucleation; inactive = no reads after selection
Summary of the method: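 Random libraries were run with three technical output replicates. In each, psi-negative yeast expressing Sup35N fused to peptides of 20 random codons were induced 24 hours with 100 μM copper sulfate and grown 7 days at 30°C on medium lacking adenine and uracil, and input and output plasmid inserts were Illumina-sequenced. The nucleation score is the DiMSum log enrichment of output over input reads, centred on the mode score of non-aggregating sequences, and sequences under 100 input reads were excluded.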

Substance	amyloid nucleation score
GMSSLIGIDMNLSEKFGYPY	inactive
IVAGVMADNDIRQDCAWKFK	1.34 ± 0.12
LHYMYTYFTTKVLSSRIGGV	inactive
RVRDCSHRLLDIFVYLCGNT	inactive
FSMWCVSCN	inactive
IDTISMG	inactive
FGLVRTNRDILH	inactive
IISHKQRSRVIVCSGS	inactive
SCISKWST	inactive
KLWFGHMPTIF	inactive
LDTLLVYHFRKERVLNTGVN	inactive
RQGGVNRNSVSMHSHGYRDC	inactive
GFRYSLLSSRSFYWHRSPSM	inactive
ERGGSTFCSTYFTVLKHRSG	inactive
CISSGGMLLNSFGSLWA	inactive
GQWDYLLTQYKNIK	-1.01 ± 1.1
MGSSFGGVLVSISVSWGCGF	-0.012 ± 0.51
HFSYKSKCVGGRFLNDIDVY	inactive
QVGPWLDNSNSFCDDIKGMC	inactive
IGFAGSVM	inactive
SRPLEMVLLLSWWIMSRKIP	inactive
CMPHG	inactive

Substance	amyloid nucleation score
QVFSN	inactive
CAVALLNHRG	inactive
VRVLDWNLMHFFFSYKRFLQ	-0.094 ± 0.25
ASCPLSKKWMELGKCAGPTH	inactive
VRVILNAGLKNGRKVLNLGR	inactive
PYYRRMPVDSARRTSKSK	inactive
QFSRWI	inactive
RCVSMEADWVVSAEFTKDVF	inactive
SKLHAE	inactive
CVRFPANLSFGSDRKAKLS	inactive
GVGPVGRF	inactive
AISYYYEHARLGWYGVELRP	inactive
LRRLELIGLECNLTGSRAVP	inactive
CFANSSYLIGTCLRCACNDR	2.37 ± 0.072
VKYVNEPVSHSIDWIPSPFP	0.559 ± 0.24
WDFFIGLLLYSIL	inactive
WAGLHRVRFES	-0.26 ± 0.42
LFILFSNGYTVGYNSDNRSF	0.601 ± 0.22
DFGVYNEHHGYLILGIKRDQ	inactive
ILSIHSGFCWWMRGALNGKL	1.45 ± 0.14
RGMFTFNYMNWGKDLLRPRL	inactive
FVSYRESKKDMQACCALCRS	0.965 ± 0.11

Substance	amyloid nucleation score
ASTMDW	inactive
GVFCSVINLIDATVVN	inactive
RRCSIFLVVDIAGQLQRFMS	inactive
SDRARRC	0.163 ± 0.98
FVLHNS	inactive
AAEPEVDNSYTAGDSGTRGT	inactive
GIYGRTGHSYVF	inactive
RKFGWIRVAWCSKRIVYYSK	-0.324 ± 0.62
TNEIDLSEFMLQITLMLIRG	inactive
RCSDWYHFTAQSS	inactive
FNMCLASQAVIADLWVVFSW	-0.054 ± 1.3
SLDCARNFRFGQTVFCCVGY	1.21 ± 0.18
YLLSVYLLVATSCMYGNMGE	inactive
RKPFENIDS	inactive
TSWRVFVGYWMG	inactive
TCTGCTSVTL	inactive
RCYVCRTMRACMVLAAKLEP	inactive
GSYLQGMRCVADWDNGEQLR	1.97 ± 0.091
AFFTFGAPCIQDNESGDRGG	inactive
SRSINCFPMLILLVL	inactive
TWATVTMVWCLNVNSVDTGL	2.26 ± 0.094
NVMVISMMTSR	inactive
